Literature values, collected in PMC8495968, “Towards optimizing peptide-based inhibitors of protein–protein interactions: predictive saturation variation scanning (PreSaVS)” (RSC Chemical Biology, 2021).
pKd: −log10 of the molar value.

Target: SIM (RanBP2) 2705-2717 (Homo sapiens) (UniProt P49792)
Assay: fluorescence anisotropy

Sequence of SUMO-1 (P63165 2-97): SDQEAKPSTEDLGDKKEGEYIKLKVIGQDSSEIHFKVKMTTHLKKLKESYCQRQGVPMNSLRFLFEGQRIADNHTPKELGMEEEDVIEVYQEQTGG

SUMO-1 (from UniProt P63165)
pKd: 5.82
